Data reported in patent publication US20250277200.

What was measured:
[1] = tested on: C3a
[2] = tested on: T1, C5a
T1 sequence: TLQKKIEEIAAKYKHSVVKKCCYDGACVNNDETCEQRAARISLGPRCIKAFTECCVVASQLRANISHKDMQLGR

CPN1-HSA, sequence (chain): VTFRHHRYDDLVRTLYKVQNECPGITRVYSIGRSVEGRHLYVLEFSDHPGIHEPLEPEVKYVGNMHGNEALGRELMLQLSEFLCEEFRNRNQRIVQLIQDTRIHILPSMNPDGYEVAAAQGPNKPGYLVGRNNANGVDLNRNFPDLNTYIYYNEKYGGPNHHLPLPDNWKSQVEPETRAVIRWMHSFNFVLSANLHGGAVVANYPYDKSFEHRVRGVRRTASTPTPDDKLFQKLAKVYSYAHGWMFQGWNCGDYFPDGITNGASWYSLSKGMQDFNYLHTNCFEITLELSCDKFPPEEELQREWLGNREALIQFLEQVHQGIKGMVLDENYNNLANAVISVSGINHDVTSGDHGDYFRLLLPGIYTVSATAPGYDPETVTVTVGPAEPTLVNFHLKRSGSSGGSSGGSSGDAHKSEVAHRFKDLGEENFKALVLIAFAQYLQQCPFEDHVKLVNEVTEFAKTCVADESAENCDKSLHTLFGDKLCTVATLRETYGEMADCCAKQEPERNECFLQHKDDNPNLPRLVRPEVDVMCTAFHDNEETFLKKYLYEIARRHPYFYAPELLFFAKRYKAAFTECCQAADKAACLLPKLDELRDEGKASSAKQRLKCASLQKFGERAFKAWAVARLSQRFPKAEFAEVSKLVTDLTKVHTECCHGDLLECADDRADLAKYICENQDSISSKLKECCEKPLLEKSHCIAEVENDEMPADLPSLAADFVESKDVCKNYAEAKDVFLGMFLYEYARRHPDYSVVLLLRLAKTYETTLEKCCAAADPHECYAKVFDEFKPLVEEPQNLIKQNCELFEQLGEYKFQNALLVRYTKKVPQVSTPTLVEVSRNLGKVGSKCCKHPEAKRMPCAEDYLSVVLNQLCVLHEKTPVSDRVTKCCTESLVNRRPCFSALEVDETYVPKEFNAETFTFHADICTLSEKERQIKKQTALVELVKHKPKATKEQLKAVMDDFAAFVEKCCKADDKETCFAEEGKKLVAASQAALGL
C3a, sequence (chain, as listed by the source): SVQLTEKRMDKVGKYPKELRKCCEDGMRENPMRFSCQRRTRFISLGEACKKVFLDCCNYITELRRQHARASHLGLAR

## CPN1-HSA
[1]
  % Cleavage (GPCR assay, purified enzyme): 100%
  % Cleavage (GPCR assay, supernatant): 100%
  Kcat/KM (Arg LC-MS/MS, purified enzyme): 800000 M⁻¹ s⁻¹
[2]
  % Cleavage (GPCR assay, purified enzyme): 82%
  % Cleavage (GPCR assay, supernatant): 97%
